Results on two substances are retold here after publication PMC11573789.

Holding throughout (test): NanoBiT (ratiometric protein-fragment complementation assay in live yeast)
What all share (settings): four experimental replicates; read off a plot

The target in one assay is Caf40.
The target of a further assay is Eft2.
Assay [1] deals with Nmd2/Upf2 [S. cerevisiae].

Upf1-SmBiT (from UniProt P30771) C122S: the other: NanoBiT ratio (log2 scale) in the assay with Caf40 worked out at 1.4 log2; with Eft2 it was 1.1 log2.
For “Upf1-SmBiT mutant C122S [S. cerevisiae] / Nmd2/Upf2 [S. cerevisiae] chain 1 C122S”, the screen value in assay [1] is -2.5 log2.
